Measured values reported in PMC9214829.

Molecular target: proteasome regulatory particle (S. cerevisiae) (UniProt P33299)
Assay: co-IP

Sequence of UniProt P33299 (P33299 whole entry, looked up): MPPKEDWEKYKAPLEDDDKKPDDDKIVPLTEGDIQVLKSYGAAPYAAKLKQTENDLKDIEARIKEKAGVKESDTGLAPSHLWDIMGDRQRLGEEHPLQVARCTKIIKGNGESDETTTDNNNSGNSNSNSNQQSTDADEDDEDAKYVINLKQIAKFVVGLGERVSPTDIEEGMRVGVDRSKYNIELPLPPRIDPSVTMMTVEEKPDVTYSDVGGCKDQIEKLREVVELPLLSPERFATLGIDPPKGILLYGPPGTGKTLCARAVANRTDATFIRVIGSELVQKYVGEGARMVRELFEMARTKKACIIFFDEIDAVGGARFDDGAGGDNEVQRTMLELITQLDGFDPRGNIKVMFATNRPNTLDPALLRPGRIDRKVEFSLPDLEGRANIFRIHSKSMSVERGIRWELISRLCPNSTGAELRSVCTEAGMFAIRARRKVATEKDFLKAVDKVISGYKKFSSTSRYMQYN

Substance: Rpn14 (from UniProt P53196 1-417) (natural protein)
- relative % of RP-bound chaperone in wild type (not4Δ set as 100%): 20%
